Test results from article PMC10437998, “A previously unrecognized superfamily of macro-conotoxins includes an inhibitor of the sensory neuron calcium channel Cav2.3” (PLOS Biology, 2023).
Several values for one entry are separate records, joined by “and”; a condition that tells them apart may be missing. Equal entries are not always repeated.

Key:
[1] = biological target: the molecule itself; experiment: […] (pH 7.8), room temperature; 1 mg/mL to 13.2 mg/mL (100 μM to 1.3 mM); […]
[2] = biological target: the molecule itself; experiment: SEC; […] (pH 7.8), 150 mM NaCl, 0.5 mL/min; […]

B1: Mu8.1 (SLC_Mu8.1), macro-conotoxin from Conus mucronatus (natural protein)
chain: GENSDNLTHCRLFEFRLCLLECMSLTLDHCYARCTTVITQIHGSDTNRFDCTIFKTCYYRCYVLGKTEDHCWKGTATSVTGDVGDLEFC
notes: also called Mu8.1_38; Mu8.1_59
- stoichiometry N [1]: 4 and 6
- stoichiometry N [2]: 2
